Measured values reported in the domain aggregation screens of Martell et al. (2025).

Test: soluble fraction after stress (log2 fold change); higher = more stays soluble; pooled small domains, quantitative proteomics
Conditions: stress: 75 degC
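Also: 20 min heating vs room temperature control held 20 min.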

## HMNPASVLDGLKITSFSPTRAIVAGPGGSRIVFDNEAVVLGGIEWDVHIQRNGIEFTSQGQTVLLLFDRS
  soluble fraction (log2): -2.35

## HMNPDDEMLLTYLTKLLVDKQFIVNSNDIFEYILRRVDRTYDGIYDIVSKLDVLSLEKKRQLTIPLIKEI
  soluble fraction (log2): 0.288

## HMNPETIHNDYKAFIKFAFSGLSYYSKVWNQNREMITPGLLETLWQKYRHLSIGEIETILEKIIKEG
  soluble fraction (log2): -2.38

## HMNPGNTESFPVYQKRLGEIIQTLAGKKGQDINSPEVKELVGEYDFLTKQMFQLPDATSMVMEIATAYRN
  soluble fraction (log2): 0.0725

## HMNPKTELMVYLKKRDEWVASQILSDVLQVSTRTIRKFVKEINMDYQTENVILSSSKGYKLNQNLLSSL
  soluble fraction (log2): -1.19

## HMNPLPALLRYFRQKAGLTQQDVAAALSISRSGYANYEEGRNIPNIEQAIKLSELLNHDFLYAYTLSS
  soluble fraction (log2): -2.53

## HMNPNYIKKLREKNQLTQEYLAAQIGVSRPTYAQIEQGQRGLTVTEAKKMADIFSLALDDFLAEKN
  soluble fraction (log2): -0.135

## HMNPSIALHDWLQSSEFKGSINLFAAALGMNPRTVEAWVYGRSTPSRRFWAKLYQITNLSRFRL
  soluble fraction (log2): -1.08

## HMNPYLWQRVRLLFSNVGVINNSATVDLVFSAPKGVLTEDLANNFSAALVKKGKEELGLDDIKITISVIPN
  soluble fraction (log2): -3.67

## HMNQADNFNSLTKREKDVLLLVTQGESNKSIADKLVLSEVTVKSHLNSIFKKLNVTNRTQAVLVAMQMNLV
  soluble fraction (log2): -1.6

## HMNQAIIVPDVKGLPLEEATTFFENNDLRYTVIDSVYTKDVPPGAIYEMVPGAGSKVKEGRIIFVTLNAR
  soluble fraction (log2): -0.183

## HMNQASLTYSEFIANVESKAITRVTISGDTISGILADGKPFQTIYPMADLELLPILRRSGVDINVKEVQ
  soluble fraction (log2): -1.51

## HMNQEIELLLREPDFTSAARLAMAINERFTNSARAIDPTSVKVRMPEGLDQASVDFVARLEDIEMSPDT
  soluble fraction (log2): 0.155

## HMNQEQQSAVMSALKATLPDLEAALEARQFKESKQLLKTAQNQFQQLDGRNRRGFQARIQLLAGQFRELS
  soluble fraction (log2): -0.179

## HMNQIDDADRKRVVDEVAGQFSSMSLTEMRSDREKLLSRIIPQVQTTLNRLGLQTIDVEGIAREVIARVG
  soluble fraction (log2): -0.0822

## HMNQIFAPMPGLVLEVKLSEGDVVAEGESAIILEAMKMENIIKSPINGIVKKVHVKKGQTIEKNTLIISFK
  soluble fraction (log2): -3.1

## HMNQLSYTERRVLQVIEGGTTKTGEIEQALAAKMSRPTVHRALDALVGANRIHRLARGEYALGPAP
  soluble fraction (log2): -0.501

## HMNQRQKQLLSILEQQGDWMKGKALATLLAVSDRTIRSDIEKINREVEGSILSHPHKGYLLSVENRQIAET
  soluble fraction (log2): 0.107

## HMNQSKYQTIADELKSKILSGEYPENTTIPPELQLQKDYQVSRHTIRQAIALLANEGFLRKEKGSGTYVDV
  soluble fraction (log2): -0.147

## HMNQTTYTVLYSGMDPADTGKVLTALNEMGVDARTQGEDTVLVPADRADEIRLELAAQGYPTS
  soluble fraction (log2): 0.06

## HMNQYIFVLNEKGARITSFVDNTIPKEELIALAKQDYPNAADYIYSADGDSMLDEFMRGKLYVNGQFVAA
  soluble fraction (log2): -0.843

## HMNREIVVYITGAVDNPGLYRLPLDSRLDDVLKLAVLSTNADREVLNPAQKLKDGQKIVVPYIVE
  soluble fraction (log2): -0.49

## HMNRGITVIVNNEEIKMKEKAQYVVVDIFDYIDFDLTVPKGSINITLNGENTPYTASIKDGDVIEVFW
  soluble fraction (log2): -1.09

## HMNRIARRELMEQLFADNKITTQEQLQQLLRAEGVEVTQATISRDMRILNIVKVSDQNGNTYYKQMK
  soluble fraction (log2): -0.171

## HMNRIEMTEPIIIKDLSRETGIPWVAIQKRLAQDGIMANINTTIEAEKAQLIAVDYGIELAVV
  soluble fraction (log2): -0.427

## HMNRIGERIKRKRELRNLNLGELAEKVGISASALSQIEKSKSFPSVITLKSIAEQLRTTVGELIGEN
  soluble fraction (log2): -0.191

## HMNRIKIYPTPGSKVLSIENINFSLIHDFKILDIFGREVKNFTVSSEKNTKMLVDTSKLSDGLYFIFFNTF
  soluble fraction (log2): -1.11

## HMNRLEFLQGLKAELEGRVPHSIIQENLRYYDSYISDEAAKGQSEEDVVESLGGPRIIARTIVDAA
  soluble fraction (log2): 0.267

## HMNRNEFMERLEYLLSDIPQEEKADAIAYYRDYLEEAGDDAGKAIQDFGSPERIAAMIRSELAG
  soluble fraction (log2): -0.0288

## HMNRQTGTVKWFNDAKGFGFITPESGPDLFVHFRSIQGAGFKSLQEGQRVTFVAVQGQKGMQADQVQA
  soluble fraction (log2): -0.681

## HMNRTKQIYNELLFRLDQGVYPPESKFPSESQLADEFSVSKVTMNKIVSMLASSGRLSRGVRGAGTFVSSP
  soluble fraction (log2): -1.33

## HMNRYPIQTEVHAFNDDIIKEAINFEMSRGGQIFFVNNRIPQLYELENTIHRLVPDARVVIGHGQMP
  soluble fraction (log2): -0.216

## HMNSFKIYPNPSSREVVRFNQAQDVKVYDTLGKLILSAKNTSAIDTKSFNTGIYFIKTANGLTKKLIV
  soluble fraction (log2): -0.886

## HMNSGFEVFREVVNQGSFIGAANALGISAPAVSKQIKLLENRLGLLLLYRTTRNVTLTDIGKQLFDTLDNS
  soluble fraction (log2): -1.98

## HMNSKKRQAILESLRSVTDHPTAEMIYNRLKPEYPDLSLGTVYRNLAMFLEEGQVISVGTVDGQERYDAR
  soluble fraction (log2): -0.564

## HMNSKSFIFHIEDEEGIRLDVFLADNLPDVSRSYVQKLIDEEHVKVNGQSAKSRLKTVSGMEITVDVPAPK
  soluble fraction (log2): -0.56

## HMNSLGYSDFVVDVQNERVASVVIEGLIINGERRDGTKFRTVLPTIGDQRLMDDLINHNVKVLARE
  soluble fraction (log2): -0.375

## HMNSLTVPDITNRTLAEASQVLLDMGLTPIPDAVAKDGVGDDVVYAQSPPPNVGAREGDVVTITYNPA
  soluble fraction (log2): 0.452

## HMNSNISYSEFLSQVEKGTINSVEITGNSIKGIYADGGEFITFSPGDPGLIDKLQRSDIEILATPPA
  soluble fraction (log2): 0.233

## HMNSPSKVIDISQLRKGMFVQLDLGWMSHPFAVGSFKVSTDEQIQTLRGLGLSEVRYIPEKSDPA
  soluble fraction (log2): -1.2

## HMNSQSGKGGVGYILETKYGLNLPPKMREAMGYAAKGVSDHLHKELHPDEIFDLFKKTFENVGQPYS
  soluble fraction (log2): -0.271

## HMNSSLLGKRIKSLREDHDLTQKELSLMIGLTPKMISFYENNQRTPPLDILLKLAKIFEVSVDYLIGYA
  soluble fraction (log2): -0.615

## HMNSTRAPYLLDFEEDAAIREARRAGLVPRIARQPSGEPVGRVILQSHDYDYPMKRGDTILITISSG
  soluble fraction (log2): -0.833

## HMNSTSGIAGVGYWINQYRKKKGMSPVDKKSPLVRRVYDWVQEQYDEGRITIISDAELTRQTELAMEA
  soluble fraction (log2): -0.482

## HMNSVAASLREISIKVSGTEDADKVSRLQELSQMPKLDASGIAEANTLLEQLRAKYGDLGLSVDTARGRIV
  soluble fraction (log2): 0.494

## HMNSVSIAPEMLNWVIAHIQMNSLPKQIVEHLTAWISGQKEPTFNQIEKVSRATGIPLGYFFLEQPPKE
  soluble fraction (log2): -2.51

## HMNSYKGELLVDDKNIRLDLYLFNQFNFFSRTKIKNYILKGNVLVNNNKTSPSYILKGSEKIYYDFSVS
  soluble fraction (log2): -3.21

## HMNTEVDKVLLRSGEAYFGEVLLRNDELVMMKTQDGARFQFPVSEIKSIEKVSVADALRHINS
  soluble fraction (log2): 0.263

## HMNTGFPIILETSDAANLTVGAPIMYRGVEVGKIRNMELNSLGDRVLIHILIGHKYQHLVRQNSEFWFSS
  soluble fraction (log2): -4

## HMNTKDRIKQLAAQRKITIAELERKLHIANGTIGKWDKQNPSIEPLKKLADYFGVTTDYLLGRT
  soluble fraction (log2): -0.381

## HMNTKLKPLYLLDIFREMTDERHRMTVPELLEELQRRGITAERKGIYRDIDALIQYGADIKHTGTGYYLAR
  soluble fraction (log2): -0.93

## HMNTKLSYSDLIEKIEAGQVEKVELDAGGSSAIVKLKNDNIEKRVNVPSIDNLMENLQDNMKTGNISVTE
  soluble fraction (log2): 0.168

## HMNTLLGLSNSFQDNKDLENANSISRRFISYRPRSEAELRIRLLKVFSHEIVLESVAQMYREGLLNDQRF
  soluble fraction (log2): -3.18

## HMNTLTKEDIQKAIDVIPIDFKSVVILNLVEGFSYKETAEILEIPIGTVMSRLHRGRKILQKLLWEYSSSK
  soluble fraction (log2): -1.4

## HMNTTTTKVVSVSSLNMRSGPSTSYNIIEVLTKDTQVEVISVEDGWAKIKYNSKTGYVSNQYLSDKK
  soluble fraction (log2): -0.934

## HMNTVAKELATQATQAKKRAFLDAYAETGIIKRAAEIAGIERKSHYLWLEKDPEYVEAFKSAGEQ
  soluble fraction (log2): 0.427

## HMNTVSVGNLGLSVRAVNALKQAGIDTYDKLQELSWEELLLIPKLGQVTAAEIYRFITSYKKG
  soluble fraction (log2): -1.56

## HMNVAETITLGKRLFNHALTILGKKQRNISRKQLKNFLNDLGLKDSKDLYESIGTGDKNPILMAQLLLG
  soluble fraction (log2): -0.512

## HMNVAVGNSKLVGVAGERAYFVNGVGAAARTLSLQVGDALPTGEKVRRIERDGVTMTGASGDVRLSVLP
  soluble fraction (log2): 0.00812

## HMNVDALIGTKGIVVQPIRPFAVGQVKVNGQVWSAVGKTPETDIEQGREVKVHAIEGVKLVVTPT
  soluble fraction (log2): 0.501

## HMNVDALVGMPARVTRAFVQGAGEVKLDNGETWTARLSAGVTDAEASVGQTVSVIAVRGAAVEVAPE
  soluble fraction (log2): 0.0183

## HMNVDSLIGKKARVLEDIDNLNAKGQVSIDGMEWTARSEDGSEIKKDALVEVVAIEGVKAIVKQ
  soluble fraction (log2): 0.242

## HMNVEQQNQARENIKRLMEEQGLSQPKLSEKAGIAFGTLSRILRGKQDLTIQTAEKIADALGLSVYDLAE
  soluble fraction (log2): 0.31

## HMNVKVSVDDIARPGLMASGRVTFADGNRGMWYVDEMGRLGIDPEVEGYQPSEADIQAFQRELQSVMES
  soluble fraction (log2): -0.00333

## HMNVNSQQINDLEKSIQKFFDKDIKNYLNQNLSNDRMISKNEIDKIILLYYGSDKEPTLDEIKSIFN
  soluble fraction (log2): -0.216

## HMNVNTHKTLILNSTFQPLSLATPQRALALLFSKKINVLKESDIKLRSVGQSVAIPKVAVLTYFVKA
  soluble fraction (log2): -0.409

## HMNVPFGYTIKDGLLVEQPDEKAILDNILTWKKGQMTVAEIAKKTGMETWKIYGILNYWRNK
  soluble fraction (log2): -1.14

## HMNVRAYKVSKESELTVEEKLEAVRGYGVADLLYVIREFEENPGKYEPEVIKLIVQQLTDKGIM
  soluble fraction (log2): 0.0392

## HMNVRRSRTHEKVTTYQGYDIFINKEPNQRGMFTSAPMRGDNEYSNLRGEGKSKQDAVNMTKEKIDEIAA
  soluble fraction (log2): 0.748
